# B1: humanized E1D1: humanized anti-EBV gH/gL antibody E1D1; SEQ ID NOs: 185 and 186 (antibody, V domains shown)
# VH: EVQLVESGGGLVQPGGSLRLSCAASGYTFTDYVISWVRQSPGKGLEWIGEIYPESGNTYYADSVKGRATLSADKSKNTAYLQMNSLRAEDTAIYFCAEGYAMDFWGQGTLVTVSS
# VL: DIQMTQSPILLSASVGDRVTITCRSSQSLLHSNGNTYLHWYQQRTNGSPRLLIYKVSNRFSGVPSRFSGSGSGTDFTLTISSLQPEDEADYFCSQSIHVPRTFGAGTKVEIKR
# Molecular target: T1, EBV gH/gL (Epstein-Barr virus, UniProt P03212+P03231)
# T1 construct: expressed in transfected cells; host or cells: CHO cells
# Experiment: Flow cytometry of gH/gL-expressing CHO cells
# Assay type: binding
# Excerpt: FIGS. 10A-10B show the comparison of murine E1D1 (mE1D1) and humanized E1D1 (hE1D1). FIG. 10A: Sequence comparison of mE1D1 and hE1D1. Alignment of heavy chain (i) and light chain (ii) variable region amino acid sequences by the Clustal W. Murine E1D1 heavy chain and light chain AA sequences are represented by SEQ ID NOs: 183 and 184, respectively, and humanized E1D1 heavy chain and light chain AA sequences are represented by SEQ ID NOs: 185 and 186, respectively. Regions of identical sequence are represented by *. Regions of similarity are represented by :. FIG. 10B: Flow cytometric analysis of mE1D1 and hE1D1 gH/gL specificity. CHO wild type cells and gH/gL-expressing CHO cells were stained with mE1 D1 and hE1 D1, followed by secondary goat anti-mouse or anti-human conjugated to AF488. Unstained cells and cells stained with secondary goat anti-mouse or anti-human conjugated to AF488 alone, were used as negative controls.
# Similar to Example 4, humanized E1D1 antibody was produced and its specificity was compared to mouse E1D1 by flow cytometric analysis (FIG. 10).
# Flow cytometric analysis of gp350 and gH/gL specificity was performed. CHO wild type cells and gp350 or gH/gL-expressing CHO cells were stained with primary antibodies, followed by secondary goat anti-mouse or anti-human conjugated to AF488. […]
molecule,measurement,value
B1,binding specificity to EBV gH/gL by flow cytometry,did not affect its binding specificity to EBV gH/gL

# Source: patent US12012446B2, “Epstein-Barr virus antibodies and uses thereof” (priority 2017, dated 2024)
